Publication PMC8835842, “YdfD, a Lysis Protein of the Qin Prophage, Is a Specific Inhibitor of the IspG-Catalyzed Step in the MEP Pathway of Escherichia coli” (International Journal of Molecular Sciences, 2022)

B1: IspG-His (enzyme, E. coli BL21(DE3), UniProt P62620 1-372, looked up)
chain: MHNQAPIQRRKSTRIYVGNVPIGDGAPIAVQSMTNTRTTDVEATVNQIKALERVGADIVRVSVPTMDAAEAFKLIKQQVNVPLVADIHFDYRIALKVAEYGVDCLRINPGNIGNEERIRMVVDCARDKNIPIRIGVNAGSLEKDLQEKYGEPTPQALLESAMRHVDHLDRLNFDQFKVSVKASDVFLAVESYRLLAKQIDQPLHLGITEAGGARSGAVKSAIGLGLLLSEGIGDTLRVSLAADPVEEIKVGFDILKSLRIRSRGINFIACPTCSRQEFDVIGTVNALEQRLEDIITPMDVSIIGCVVNGPGEALVSTLGVTGGNKKSGLYEDGVRKDRLDNNDMIDQLEARIRAKASQLDEARRIDVQQVEK
notes: ispG amplified from the E. coli BL21(DE3) genome; also called His-tagged ispG; GcpE; source: E. coli BL21(DE3); coexpressed with YdfD constructs, in lysate; and purified (Ni-NTA, Superdex 200)
B2: YdfD (MBP tag cleaved) (natural protein, E. coli BL21(DE3), UniProt P29010 1-63, looked up)
chain: MNSAFVLVLTVFLVSGEPVDIAVSVHRTMQECMTAATEQKIPGNCYPVDKVIHQDNIEIPAGL
notes: YdfD, lysis protein of the Qin cryptic prophage, 63 amino acids; ydfD amplified from the E. coli BL21(DE3) genome; No truncation is told for this construct; source: E. coli BL21(DE3), purified as MBP-YdfD (amylose resin), MBP cleaved by PreScission protease; not shown: MBP, N-terminal, cleaved

Legend:
YdfD (MBP tag cleaved) = target: B2; assay: ITC; IspG (1.1 mM) injected into YdfD in the cell, 2 μL injections at 120 s spacing, 25 °C, 20 mM Tris, 150 mM NaCl, pH 8.0; one-site binding fit; conditions: both partners purified
IspG-His = target: B1; assay: as above; conditions: both partners purified

Binder	dH (YdfD (MBP tag cleaved))	stoichiometry N (YdfD (MBP tag cleaved))	Kd (IspG-His)
B1	1.57 kcal/mol	0.63	–
B2	–	–	18.4 µM
